Source: patent US7211424B1, “Mammalian Subtilisin/kexin isozyme SKI-1: a proprotein convertase with a unique cleavage specificity” (Institut de Recherches Cliniques de Montreal, priority 1999, dated 2007)

T1: BTMD-SKI-1 (Homo sapiens, UniProt Q14703)
T1 sequence (Q14703 187-997 limits assumed): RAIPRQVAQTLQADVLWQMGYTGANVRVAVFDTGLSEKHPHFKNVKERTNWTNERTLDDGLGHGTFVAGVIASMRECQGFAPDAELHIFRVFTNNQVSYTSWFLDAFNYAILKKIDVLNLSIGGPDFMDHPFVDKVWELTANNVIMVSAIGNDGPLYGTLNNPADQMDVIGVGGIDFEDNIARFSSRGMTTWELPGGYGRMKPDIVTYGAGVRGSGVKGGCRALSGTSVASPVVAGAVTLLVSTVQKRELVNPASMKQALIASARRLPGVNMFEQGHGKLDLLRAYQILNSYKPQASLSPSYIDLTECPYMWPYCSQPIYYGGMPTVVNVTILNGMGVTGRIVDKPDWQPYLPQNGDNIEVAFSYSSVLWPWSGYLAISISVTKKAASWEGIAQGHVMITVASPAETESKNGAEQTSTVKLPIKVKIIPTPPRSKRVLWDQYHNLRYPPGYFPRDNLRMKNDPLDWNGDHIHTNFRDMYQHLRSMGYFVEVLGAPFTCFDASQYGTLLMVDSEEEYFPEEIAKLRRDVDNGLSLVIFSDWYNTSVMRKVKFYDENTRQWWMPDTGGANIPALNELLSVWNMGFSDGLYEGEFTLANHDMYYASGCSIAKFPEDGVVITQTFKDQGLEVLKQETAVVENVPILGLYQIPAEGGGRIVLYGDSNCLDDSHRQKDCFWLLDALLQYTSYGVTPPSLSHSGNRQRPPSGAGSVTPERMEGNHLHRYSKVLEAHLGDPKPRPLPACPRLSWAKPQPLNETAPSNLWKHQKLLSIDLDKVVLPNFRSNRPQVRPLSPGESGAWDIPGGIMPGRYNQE
T1 sequence (Q14703 17-137 partner limits assumed): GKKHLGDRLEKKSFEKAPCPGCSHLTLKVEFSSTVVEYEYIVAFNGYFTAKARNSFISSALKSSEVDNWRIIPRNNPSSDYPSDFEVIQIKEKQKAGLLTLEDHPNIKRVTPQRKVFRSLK

T2: SKI-1 (Homo sapiens, UniProt Q14703)
T2 sequence (Q14703 187-998 limits assumed): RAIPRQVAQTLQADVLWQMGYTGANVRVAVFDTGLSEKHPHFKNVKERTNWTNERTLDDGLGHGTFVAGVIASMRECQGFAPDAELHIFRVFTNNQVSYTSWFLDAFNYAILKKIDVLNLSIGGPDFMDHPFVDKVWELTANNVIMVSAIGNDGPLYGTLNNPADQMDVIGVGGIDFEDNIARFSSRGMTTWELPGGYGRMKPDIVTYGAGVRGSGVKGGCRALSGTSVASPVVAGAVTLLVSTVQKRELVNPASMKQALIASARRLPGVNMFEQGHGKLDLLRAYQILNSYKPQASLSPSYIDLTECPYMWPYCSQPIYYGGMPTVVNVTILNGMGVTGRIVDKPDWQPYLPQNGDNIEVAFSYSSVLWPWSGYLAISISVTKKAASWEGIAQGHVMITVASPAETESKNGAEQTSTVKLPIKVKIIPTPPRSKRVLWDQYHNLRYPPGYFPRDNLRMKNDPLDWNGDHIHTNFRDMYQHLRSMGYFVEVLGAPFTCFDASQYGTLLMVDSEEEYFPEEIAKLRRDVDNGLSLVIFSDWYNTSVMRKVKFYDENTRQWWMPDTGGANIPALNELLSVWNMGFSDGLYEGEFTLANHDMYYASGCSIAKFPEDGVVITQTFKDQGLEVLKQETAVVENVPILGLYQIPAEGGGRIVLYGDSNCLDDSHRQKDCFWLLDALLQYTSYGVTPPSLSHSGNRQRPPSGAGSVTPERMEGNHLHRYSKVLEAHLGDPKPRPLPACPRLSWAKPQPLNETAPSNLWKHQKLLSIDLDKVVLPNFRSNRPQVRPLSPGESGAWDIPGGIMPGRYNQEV

T3: SKI-1 protease (Homo sapiens, UniProt Q14703)
T3 construct: endogenous in cells; the enzyme itself is not transfected
T3 sequence (Q14703 187-1052): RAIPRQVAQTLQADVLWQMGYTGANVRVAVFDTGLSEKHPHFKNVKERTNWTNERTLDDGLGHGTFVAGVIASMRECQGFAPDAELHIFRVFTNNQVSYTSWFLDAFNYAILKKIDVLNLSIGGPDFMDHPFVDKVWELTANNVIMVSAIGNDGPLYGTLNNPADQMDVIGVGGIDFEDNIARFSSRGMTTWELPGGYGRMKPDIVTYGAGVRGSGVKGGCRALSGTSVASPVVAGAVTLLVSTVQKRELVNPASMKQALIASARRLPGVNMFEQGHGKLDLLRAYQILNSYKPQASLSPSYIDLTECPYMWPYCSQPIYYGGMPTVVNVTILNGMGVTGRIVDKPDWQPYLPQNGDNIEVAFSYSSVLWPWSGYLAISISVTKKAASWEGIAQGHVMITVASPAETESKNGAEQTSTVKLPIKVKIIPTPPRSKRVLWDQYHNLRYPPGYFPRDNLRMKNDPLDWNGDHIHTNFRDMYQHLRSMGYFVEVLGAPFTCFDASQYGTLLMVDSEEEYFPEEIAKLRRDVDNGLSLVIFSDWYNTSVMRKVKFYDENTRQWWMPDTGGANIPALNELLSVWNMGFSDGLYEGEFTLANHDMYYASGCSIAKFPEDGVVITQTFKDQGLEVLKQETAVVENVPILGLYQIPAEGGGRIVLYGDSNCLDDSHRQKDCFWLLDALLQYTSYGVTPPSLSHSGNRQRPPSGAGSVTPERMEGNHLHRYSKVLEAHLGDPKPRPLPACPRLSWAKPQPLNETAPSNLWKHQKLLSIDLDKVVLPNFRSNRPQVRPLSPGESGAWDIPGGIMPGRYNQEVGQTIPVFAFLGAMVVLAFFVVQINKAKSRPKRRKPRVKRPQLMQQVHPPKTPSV


Key:
[1] = biological target: T4, shed-hSKI-1 (Homo sapiens, UniProt Q14703); assay: Hydrolysis of quenched fluorogenic substrates by shed-hSKI-1; assay type: biochemical; conditions: in the presence of 10 mM EDTA
T4 construct: SKI-1 is further processed to remove the transmembrane domain that keeps it integrated in the ER membrane, which generates a SKI-1 soluble form; made in house; host or cells: HK293 cells stably transfected with full-length hSKI-1 in pcDNA3; shed enzyme in the medium
Protocol: For digestions, each peptide was typically reacted at 37° C. with 10 μl of the concentrated enzyme preparation in a buffer consisting of 50 mM HEPES (N-2-Hydroxyethyl piperazine-N′-2 EthaneSulfonic acid) (ICN Biomedicals Inc), 50 mM MES (2-[N-Morpholino] EthaneSulfonic acid) (Sigma Chem Co.), and 3 mM Ca^2+-acetate (pH 6.5). The digestion products were separated by RP-HPLC on a Beckman 5 μm Ultrasphere C18 column (0.2×25 cm) and eluted with a 1%/min linear gradient of aqueous 0.1% TFA/CH3CN ([…]) at a flow rate of 1 ml/min. The collected peptides were characterized by mass spectrometry and amino acid composition, which was also used to quantitate the amount of various substrates and products. The digestions of the quenched fluorogenic peptides were analyzed by RP-HPLC using a dual UV (210 nm) and fluorescence (excitation and emission wavelengths of 320 and 420 nm, respectively) detector (Rainin).
Km(app), Vmax(app) and Ki(app) determinations—Following digestion reactions with increasing substrate concentrations, the products were separated by RP-HPLC. The rate of substrate hydrolysis was obtained from the integrated peak areas of the chromatograms. […] For the two quenched peptides, kinetic parameters were determined as described (17).

[2] = biological target: T1, BTMD-SKI-1; assay: biochemical; assay type: biochemical
[3] = biological target: T2, SKI-1; assay type: biochemical; conditions: overnight 37° C., pH 6.0; PMSF 0.5 mM + pAPMSF 50 μM, o-phenanthroline 5 mM, EDTA 10 mM
[4] = system: SREBP mediated transcription; assay: SREBP target gene mRNA in HK293 cells overexpressing ProSKI-1 and SREBP-1 (Northern blot); assay type: cell-based, human
Protocol: Cell Culture: […] Total RNA was isolated with Trizol (Gibco BRL) reagent according to the instructions of the manufacturer. In order to extract proteins cells were washed and collected in PBS with protease inhibitors ( ). […] Samples were shaken at 4 C for 1 hour and centrifuged and the supernatant was frozen in aliquots at -70° C. Transfections: […] On day two medium containing appropriate selection agents (800 μg/ml Geneticin for pcDNA3neo, […] Zeocin for pcDNA3zeo) were added. The medium was changed every two days until defined colonies were evident. Colonies were isolated and formed stable cell lines were analyzed by immunoblotting with ProSKI-1 and SREBP-1 antibodies. […] After transfer filters were crosslinked by UV irradiation in a Stratalinker (Stratagene). Filters were prehydridized at 42° C. for 1 hour and hybridized with random labeled ^32P cDNA probes for 16-20 hours. UltrahybTM buffer (Ambion) was used. After hybridization filters were washed and exposed to film for indicated time and bands were quantified by densitometry. Primer pairs were used to clone cDNA probes: HMG CoA reductase [[NT] ID NO: 21)] [[NT] ID NO: 22)], farnesyl diphosphate [[NT] ID NO: 23)], [[NT] ID NO: 24)], Fatty acid synthase [[NT] ID NO: 25)], [[NT] ID NO: 26)], Acetyl CoA carboxylase [[NT] ID NO: 27)], [5' [NT]3 (SEQ ID NO: 28)], SREBP-1 [[NT] ID NO: 29)], [[NT] ID NO: 30)]. […]

[5] = biological target: furin (Homo sapiens, UniProt P09958); assay: Specificity of ProSKI-1: processing of neurotrophin-3 (NT-3), a substrate not processed by SKI-1; assay type: cell-based
Chain of furin (P09958 108-794, species assumed): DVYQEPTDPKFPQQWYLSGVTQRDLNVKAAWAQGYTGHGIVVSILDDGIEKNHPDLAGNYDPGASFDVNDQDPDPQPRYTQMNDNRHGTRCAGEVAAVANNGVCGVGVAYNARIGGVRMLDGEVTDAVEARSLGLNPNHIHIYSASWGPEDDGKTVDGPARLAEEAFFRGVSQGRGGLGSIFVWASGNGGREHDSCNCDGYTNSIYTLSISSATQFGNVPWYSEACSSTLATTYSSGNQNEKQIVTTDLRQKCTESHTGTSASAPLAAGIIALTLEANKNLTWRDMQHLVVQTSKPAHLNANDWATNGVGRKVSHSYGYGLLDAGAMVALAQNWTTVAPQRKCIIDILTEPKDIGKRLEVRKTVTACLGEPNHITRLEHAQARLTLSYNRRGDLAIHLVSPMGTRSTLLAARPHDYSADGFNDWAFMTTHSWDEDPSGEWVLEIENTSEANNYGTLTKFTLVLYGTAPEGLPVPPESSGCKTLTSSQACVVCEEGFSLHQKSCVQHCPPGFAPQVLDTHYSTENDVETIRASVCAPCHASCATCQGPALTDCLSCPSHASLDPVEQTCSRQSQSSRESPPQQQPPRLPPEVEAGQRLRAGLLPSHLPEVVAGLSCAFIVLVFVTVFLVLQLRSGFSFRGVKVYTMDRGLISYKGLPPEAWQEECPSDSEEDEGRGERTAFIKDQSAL

[6] = biological target: T3, SKI-1 protease; assay: SREBP-1 processing in stable HK293 cell lines overexpressing ProSKI-1 and SREBP-1 (immunoblot); assay type: cell-based
Protocol: Cell Culture: HK293 cells were maintained as monolayers in Dulbecco's modified Eagle's medium containing 100 units/ml penicillin and 100 μg/ml streptomycin sulfate (medium A) supplemented with 10% fetal calf serum. 24 hours before RNA and protein extractions medium A was supplemented with 5% lipoprotein deficient serum, 50 μM mevalonate (Sigma), 50 μM compactin (Sigma) and with no sterols or 1 μg/ml of 25-hydroxy-cholesterol and 10 μg/ml of cholesterol. 4 hours before protein extraction 25 μg/ml N-acetyl-leucinyl—leucinyl norleucinal was added. Total RNA was isolated with Trizol (Gibco BRL) reagent according to the instructions of the manufacturer. In order to extract proteins cells were washed and collected in PBS with protease inhibitors ( ). After addition of buffer A (Triton×100 1%,50 mM tris maleate, 2 mM CaCl2, inhibitor coctail ( ), and ALLN) cells were mixed with pipette and allowed to swell on ice for 20 minutes Then the solution was centrifuged for 5 minutes at 15, 000 rpm and supernatants representing membrane proteins were collected and stored until analyzed at −70° C. […]
Transfections: HK293 cells were plated at a density of 5×10^5 /60 mm dish in medium A with 10% fetal calf serum and were cultured until they were 40–60% confluent. […] Colonies were isolated and formed stable cell lines were analyzed by immunoblotting with ProSKI-1 and SREBP-1 antibodies. […]

Molecule	cleavage of quenched fluorogenic peptide at the RSLK↓ site [1]	Hydrolysis of SREBP-2 peptide (% of control) [2]	inhibition of the processing of proBDNF by SKI-1 [3]	mRNA levels of LDL-receptor, HMG-CoA reductase, farnesyl diphosphate and fatty acid synthase ([4]; HK293 cells, with and without lipids, early passages of previously frozen cell lines)	target gene mRNA levels ([4]; same clones kept in culture for further passages)	level and furin-derived processing of NT-3 [5]	processing of cytoplasmic proSREBP-1 into intermediate form(s) ([6]; HK293 cell lines overexpressing SREBP-1 together with ProSKI-1)	nuclear SREBP-1 ([6]; HK293 nuclear extracts, absence of sterols)
O=C(O)CN(CCN(CC(=O)O)CC(=O)O)CC(=O)O [EDTA]	completely abolished	0 % of control	effectively inhibit					
ProSKI-1: the 188 amino acids that make up the signal peptide and the prosegment of SKI-1, expressed in HK293 cells (protein) GKKHLGDRLEKKSFEKAPCPGCSHLTLKVEFSSTVVEYEYIVAFNGYFTAKARNSFISSALKSSEVDNWRIIPRNNPSSDYPSDFEVIQIKEKQKAGLLTLEDHPNIKRVTPQRKVFRSLKYAESDPTVPCNETRWSQKWQSSRPLRRASLSLGSGFWHATGRHSSRRLLRA				greatly reduced	normal or even higher than in control cells	unaffected	formation of the intermediate form(s) of SREBP-1 was abolished	Only minute amounts of nuclear SREBPs were detected
